Experimental data reported in paper PMC6695498 (2019).

Tests used:
[1] = molecular target: SUMO2 chain (linear dimer/trimer) (Homo sapiens, UniProt P61956); assay: ITC
[2] = molecular target: SUMO1-capped SUMO2 chain (linear dimer/trimer) (Homo sapiens, UniProt P63165); assay: ITC
Sequence of SUMO1-capped SUMO2 chain (linear dimer/trimer) (P63165 2-97, chain 1 of 2): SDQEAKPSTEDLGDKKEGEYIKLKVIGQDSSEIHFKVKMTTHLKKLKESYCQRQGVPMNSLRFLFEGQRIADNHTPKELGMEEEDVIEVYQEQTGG
Sequence of SUMO1-capped SUMO2 chain (linear dimer/trimer) (chain, as listed by the source, chain 2 of 2): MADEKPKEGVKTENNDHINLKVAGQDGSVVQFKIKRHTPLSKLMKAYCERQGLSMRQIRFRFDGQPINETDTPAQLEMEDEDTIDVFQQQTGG

Sequence of SUMO2 chain (linear dimer/trimer) (P61956 1-93): as the sequence (chain, as listed by the source, chain 2 of 2) above

- Kd [1]: ~13.5 µM
- Kd [2]: ~2500 nM
B1: Arkadia SUMO-binding domain (protein)
chain: VLARRKYALLPSSSSSSENDLSSESSSSSSTEGEEDLFVSASENHQNNPAVPSGSIDEDVVVIEASSTPQVTANEEINVTSTDSEVEIVTVGESYRSRSTLGHSRSHWSQGSSSHASRPQEPRNRSRISTVIQPLRQNAAEVVDLTVDEDEPTVVPTTSARMES
